# Laboratory results taken from PMC11476691, “ATM1, an essential conserved transporter in Apicomplexa, bridges mitochondrial and cytosolic [Fe-S] biogenesis” (PLOS Pathogens, 2024).
# T1: PfIscU (Plasmodium falciparum, UniProt Q8IKT4)
# T1 construct: gene IscU; GST fusion from pGEX-KG in E. coli BL21(DE3), GST removed by thrombin
# T1 sequence (Q8IKT4 1-162): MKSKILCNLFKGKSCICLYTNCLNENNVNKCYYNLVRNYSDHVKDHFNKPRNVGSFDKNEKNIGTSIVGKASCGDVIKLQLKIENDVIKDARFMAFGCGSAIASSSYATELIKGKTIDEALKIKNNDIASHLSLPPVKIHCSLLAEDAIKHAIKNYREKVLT
# T2: PfIscA2 (Plasmodium falciparum, UniProt O97297)
# T2 construct: gene IscA2; GST fusion from pGEX-KG in E. coli C43, GST removed by thrombin
# T2 sequence (O97297 1-404): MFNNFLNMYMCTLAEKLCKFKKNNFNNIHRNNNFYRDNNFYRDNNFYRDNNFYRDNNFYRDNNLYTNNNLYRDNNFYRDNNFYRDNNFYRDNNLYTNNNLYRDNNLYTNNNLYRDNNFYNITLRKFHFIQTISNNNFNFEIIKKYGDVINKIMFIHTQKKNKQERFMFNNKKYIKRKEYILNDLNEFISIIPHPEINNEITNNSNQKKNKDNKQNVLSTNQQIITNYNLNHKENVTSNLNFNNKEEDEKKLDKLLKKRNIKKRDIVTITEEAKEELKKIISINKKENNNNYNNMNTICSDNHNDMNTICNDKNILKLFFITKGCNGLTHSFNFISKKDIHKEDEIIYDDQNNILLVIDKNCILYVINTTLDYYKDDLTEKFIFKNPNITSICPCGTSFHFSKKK
# T3: PfATM1-CTD (Plasmodium falciparum, UniProt Q8IDH9)
# T3 construct: gene ABCB6
# T3 sequence (Q8IDH9 807-1049): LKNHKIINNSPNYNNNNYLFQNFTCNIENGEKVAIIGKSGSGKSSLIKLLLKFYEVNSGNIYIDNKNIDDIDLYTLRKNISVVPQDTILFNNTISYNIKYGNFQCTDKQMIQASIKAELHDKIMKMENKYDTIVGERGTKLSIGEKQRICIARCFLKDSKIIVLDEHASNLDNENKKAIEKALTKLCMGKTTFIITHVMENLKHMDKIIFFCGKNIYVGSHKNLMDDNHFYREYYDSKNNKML
# B1: PfATM1 (PfABCB6 / PfMDR6) (Plasmodium falciparum 3D7) (protein)
# chain: RISDEFYSSFLYHSYIENLKSTKEYVYFIYLQDIYYNINIFKNKGRLYISNNGLCNDKLKDNNNNNNINSNNFGNSYNAYTKKKSFYHSFNDLNEAKEIRKKRKNEKSEKNIVEYLLCNIINPNENYHIQNIYNHNLNNNVSIEIHKKNDSVMYHYNNEKKTKTSKMTTDIKLKQINNVYIKYVPYKNKIITLACPNKYYPTLYRYFSSHTNKKEDAEENDKNKNININNVDNRYKEDFMYGCENKNDSEKHKKTTNNNFGDEFEKLKVKELDKILNKLEMLYDNKNNKMNINVKILGYIFKNFLLKNKELKRKIFCSLFFLLCSKMAIIYTPILLSTFIENVNLQKSLSNNIDIYSTNKSSVLLLCAYVFSRVLSSTMNELRNSVFSNISQKISTFVSKLFFYKIHNLNLTYILSKKNGELSFIFNRGCKSITNLLNVMVFQIIPIIIEFILYLYILTYKIHYTVSLVTCFNMFLYVLFTTLITKRRTIIRKHMNKAEQNTFNIFLDSIQNVEQVKYYTNEIHELKKFIKEQKKYEKEAINVQKSLSFLNFGQQIILNTNLFLCMYLTYLNIANDIFPFSYLILVNTLLFQLAMPLNMFGTIYRETKLSLVDIESMIKILVKKIKSPDYGNQMLIKNGNIKFENVYFKYPLNEDINGLEQNYQAKEKDPNIINNINNINNINNINNINNINSINNIYTFESNVKNISSTNMITSSINKLKKWYLDKVKDNKKNVQYNNNDVKKTNPNITKNLNKEIKENINTHLKNHKIINNSPNYNNNNYLFQNFTCNIENGEKVAIIGKSGSGKSSLIKLLLKFYEVNSGNIYIDNKNIDDIDLYTLRKNISVVPQDTILFNNTISYNIKYGNFQCTDKQMIQASIKAELHDKIMKMENKYDTIVGERGTKLSIGEKQRICIARCFLKDSKIIVLDEHASNLDNENKKAIEKALTKLCMGKTTFIITHVMENLKHMDKIIFFCGKNIYVGSHKNLMDDNHFYREYYDSKNNKML
# notes: predicted mature form aa 43-1049 (MTS removed), E. coli YbeL hydrophilic domain (beta) and 6xHis fused at both N- and C-termini (pET28a beta-PfATM1-beta), E. coli C43, 152 kDa monomer, homodimer
# B2: recombinant PfATM1 (6X-His tagged β-PfATM1-β) (natural protein, P. falciparum, UniProt Q8IDH9 43-1049, looked up)
# chain: B1 chain
# notes: P. falciparum ATM1 (PfATM1, ABCB6, MDR6), PF3D7_1352100, predicted mature form, aa 43-1049; Monomer 152 kDa, dimer about 300 kDa with the fusion domains; also called full-length PfATM1; PfATM1 dimer; source: E. coli C43, purified from membranes (DDM and Triton X-114, Ni-NTA, SEC Superdex S-200); not shown: E. coli YbeL hydrophilic fusion domain (β), N-terminal, kept; E. coli YbeL hydrophilic …
# B3: PfATM1-CTD (domain or fragment, P. falciparum, UniProt Q8IDH9 807-1049, looked up)
# chain: T3 sequence (Q8IDH9 807-1049)
# notes: P. falciparum ATM1 (PfATM1, ABCB6, MDR6), PF3D7_1352100, C-terminal ATPase domain, aa 807-1049; Cloned in pET23a; About 30 kDa, with a dimeric form of about 60 kDa on SDS-PAGE; also called C-terminal ATPase domain of PfATM1; source: E. coli BL21 (DE3), purified (Ni-NTA, SEC Superdex S-75)
# Tests used:
# PfIscU = target: T1, PfIscU; assay: chemical reconstitution, cluster donor assay, UV-VIS; format: binding; details: anaerobic, 25 mM Tris-Cl pH 7.5, 100 mM NaCl
# PfIscA2 = target: T2, PfIscA2; assay: as above; format: binding; details: anaerobic, 25 mM Tris-Cl pH 7.5, 100 mM NaCl
# PfATM1-CTD = target: T3, PfATM1-CTD; assay: UV-VIS spectroscopy; format: binding; details: as purified; lower intensity than full length
# [1] = substrate: Nc1ncnc2c1ncn2[C@@H]1O[C@H](COP(=O)(O)OP(=O)(O)OP(=O)(O)O)[C@@H](O)[C@H]1O; assay: ATPase, phosphate release (EnzChek MESG/PNP); format: biochemical, Plasmodium falciparum; details: 500 nM holo-PfATM1, increasing ATP, no GSSG
# [2] = target: the molecule itself; assay: SEC + native gel or EMSA; Superdex S-200; fractions electrophoresed on 6% native-PAGE; dimer to monomers
# [3] = target: the molecule itself; assay: SDS-PAGE of the purified protein; purified PfATM1-CTD on Coomassie-stained SDS-PAGE and western blot with anti-6XHis Ab; dimer of about 60 kDa beside the monomer of about 30 kDa; broken with DTT and urea
molecule,measurement,setting,value
[S]12[Fe]3[S]4[Fe]1[S]1[Fe]2[S]3[Fe]41 [[4Fe-4S]],"chemical reconstitution, cluster donor assay, UV-VIS",PfIscU,Reconstituted PfIscU and PfIscA2 carrying [4Fe-4S] were then used as cluster donors
same,"chemical reconstitution, cluster donor assay, UV-VIS",PfIscA2,Reconstituted PfIscU and PfIscA2 carrying [4Fe-4S] were then used as cluster donors
same,UV-VIS spectroscopy,PfATM1-CTD,A lower intensity [4Fe-4S] peak was also observed in PfATM1-CTD
B1,Km,[1],178.9 ± 34.86 µM
same,kcat,[1],0.129 ± 0.00767 s⁻¹
B2,stoichiometry N,[2],2
B3,stoichiometry N,[3],2
